Source: patent publication US20080199426

Tested on: Hirudin (Calbiochem 377853)

For “thrombin activated from 10% human plasma on HUVEC monolayers”, the “cleavage of the chromogenic thrombin substrate (absorbance at 405 nm)” value was “completely blocked the cleavage of the chromogenic thrombin substrate”.
